Experimental data from patent US6649742.

Target: T1, human CD5 cell differentiation marker (human, UniProt P06127 25-495)
T1 sequence: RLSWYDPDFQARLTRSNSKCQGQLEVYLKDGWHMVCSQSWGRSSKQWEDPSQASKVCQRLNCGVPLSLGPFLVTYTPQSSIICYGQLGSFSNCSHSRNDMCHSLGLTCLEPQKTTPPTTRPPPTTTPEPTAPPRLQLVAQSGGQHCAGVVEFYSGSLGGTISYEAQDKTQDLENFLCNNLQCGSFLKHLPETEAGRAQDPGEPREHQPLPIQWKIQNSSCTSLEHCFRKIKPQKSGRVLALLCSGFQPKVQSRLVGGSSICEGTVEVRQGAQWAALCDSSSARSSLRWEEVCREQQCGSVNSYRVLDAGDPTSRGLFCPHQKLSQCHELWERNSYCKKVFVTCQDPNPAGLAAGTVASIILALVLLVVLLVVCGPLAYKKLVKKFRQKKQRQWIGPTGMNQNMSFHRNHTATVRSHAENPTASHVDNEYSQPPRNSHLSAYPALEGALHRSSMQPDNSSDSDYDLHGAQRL
Test: cell-based or functional assay

B1: he3Fab-rGelA50(C44) (other)
light: DIQMTQSPSSLSASVGDRVTITCRASQDINSYLSWFQQKPGKAPKTLIYRANRLESGVPSRFSGSGSGTDYTLTISSLQYEDFGIYYCQQYDESPWTFGGGTKLEIK
heavy: EIQLVQSGGGLVKPGGSVRISCAASGYTFTNYGMNWVRQAPGKGLEWMGWINTHTGEPTYADSFKGRFTFSLDDSKNTAYLQINSLRAEDTAVYFCTRRGYDWYFDVWGQGTTVTVSS
chain: GLDTVSFSTKGATYITYVNFLNELRVKLKPEGNSHGIPLLRKKCDDPGKAFVLVALSNDNGQLAEIAIDVTSVYVVGYQVRNRSYFFKDAPDAAYEGLFKNTIKTRLHFGGSYPSLEGEKAYRETTDLGIEPLRIGIKKLDENAIDNYKPTEIASSLLVVIQMVSEAARFTFIENQIRNNFQQRIRPANNTISLENKWGKLSFQIRTSGANGMFSEAVELERANGKKYYVTAVDQVKPKIALLKFVDKDPK
modifications: Cys 44 disulfide-linked to the M2IT linker on the Fab; lysine residues of the Fab derivatized with 5-methyl-2-iminothiolane (M2IT), 1 M2IT per Fab
In the case of B1, the “IC50 (pMT), CEM Cells; whole cell cytotoxicity (inhibition of protein synthesis)” value is reported as 173 pMT and the “IC50 (pMT), HSB2 Cells; whole cell cytotoxicity (inhibition of protein synthesis)” value is reported as 165 pMT.
